Data taken from paper PMC12430135, “A Unique Trimeric Assembly of Human Dishevelled 1 PDZ Domain in Crystal: Implication of Homo- and Hetero-Oligomerization During Wnt Signaling Process” (Molecules, 2025).

Columns and labels:
[1] = molecular target: Dvl PDZ PDZ (Homo sapiens) (UniProt O14640); details: cited from earlier work
[2] = molecular target: the molecule itself; assay: crystal structure; hDvl1-PDZ at 8-9.5 mg/ml; vapor diffusion at 20 °C; 0.1 M sodium citrate pH 5.6, 0.5 M ammonium sulfate, 1.0 M lithium sulfate, 0.01 M glutathione, 0.01 M glutathione disulfide; 2.4 Å

Dvl C-terminus C-terminus, sequence (O14640 whole entry, looked up): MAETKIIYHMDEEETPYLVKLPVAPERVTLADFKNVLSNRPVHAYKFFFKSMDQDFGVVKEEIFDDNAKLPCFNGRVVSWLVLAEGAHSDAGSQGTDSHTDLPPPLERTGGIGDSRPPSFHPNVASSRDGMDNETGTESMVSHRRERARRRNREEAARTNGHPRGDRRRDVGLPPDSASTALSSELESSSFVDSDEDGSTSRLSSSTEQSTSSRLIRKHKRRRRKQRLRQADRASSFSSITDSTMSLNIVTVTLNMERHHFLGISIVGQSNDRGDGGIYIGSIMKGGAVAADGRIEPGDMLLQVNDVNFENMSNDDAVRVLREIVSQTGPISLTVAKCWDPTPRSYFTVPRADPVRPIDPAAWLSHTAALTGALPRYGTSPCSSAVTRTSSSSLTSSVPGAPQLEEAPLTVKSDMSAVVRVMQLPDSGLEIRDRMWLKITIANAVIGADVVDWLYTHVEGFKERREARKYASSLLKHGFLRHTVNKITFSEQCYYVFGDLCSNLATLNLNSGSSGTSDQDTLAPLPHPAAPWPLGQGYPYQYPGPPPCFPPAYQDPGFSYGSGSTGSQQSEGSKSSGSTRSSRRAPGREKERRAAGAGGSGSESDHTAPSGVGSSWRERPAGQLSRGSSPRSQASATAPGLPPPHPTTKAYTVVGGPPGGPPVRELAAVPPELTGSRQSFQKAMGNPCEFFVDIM

Molecule | Kd [1] [µM] | stoichiometry N [2]
Dvl C-terminus C-terminus (from UniProt O14640) | 7 | 
PDZ domain of human Dishevelled 1 (hDvl1-PDZ), residues 246-340 with CW338, 339AT (domain or fragment, UniProt O14640 246-340, looked up, Dishevelled 1 (Dvl1), human, PDZ domain, residues 246-340, with two amino acid substitutions (CW338, 339AT); 15N-labelled (M9 medium) for NMR; Calculated molecular weight of the monomer printed as 10,754; also called human Dvl1-PDZ; hDvl1-PDZ1) SLNIVTVTLNMERHHFLGISIVGQSNDRGDGGIYIGSIMKGGAVAADGRIEPGDMLLQVNDVNFENMSNDDAVRVLREIVSQTGPISLTVAKATD |  | 3
